± gives the uncertainty stated by the source.
Assay: protein stability index of a GFP-peptide fusion (yeast GPS) (PSI 1-4); higher = more stable; sorted into four equal gates, so the index is relative within each strain
Method in brief: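 The protein stability index of a peptide was calculated by multiplying its read frequency in each gate by that gate's number and adding the products. The peptides were tiled 17-residue stretches of yeast proteins, fused downstream of GFP on a Cherry-expressing plasmid and carried in yeast as a pooled library. Mid-log cultures in leucine-free medium were sorted into four equal gates by GFP/Cherry ratio, and each gate's plasmids were PCR-amplified and Illumina-sequenced.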

VDLWSVGCIFAELIGLQ [SSN3]
protein stability index (doa10∆): 3.18 ± 0.097 | protein stability index (pdr5∆): 3.16 ± 0.13 | protein stability index (san1∆): 3.35 ± 0.036 | protein stability index (ubr1∆): 3.17 ± 0.12

EVIFSFEGTPPFSLTYV [YMR129W/POM152]
protein stability index (doa10∆): 2.09 ± 0.051 | protein stability index (pdr5∆): 2.21 ± 0.063 | protein stability index (san1∆): 2.11 ± 0.083 | protein stability index (ubr1∆): 2.25 ± 0.047

QALIHGLNRHYYSLNID [RPN11]
protein stability index (doa10∆): 1.98 ± 0.15 | protein stability index (pdr5∆): 2.4 ± 0.1 | protein stability index (san1∆): 2.44 ± 0.068 | protein stability index (ubr1∆): 2.42 ± 0.068

YGNRAEQFLETDSDFAK [SRP68]
protein stability index (doa10∆): 3.15 ± 0.12 | protein stability index (pdr5∆): 2.99 ± 0.08 | protein stability index (san1∆): 3.26 ± 0.083 | protein stability index (ubr1∆): 3.23 ± 0.065

KPYVDRFAFSVIWELDD [DIS3]
protein stability index (doa10∆): 1.93 ± 0.046 | protein stability index (pdr5∆): 1.98 ± 0.047 | protein stability index (san1∆): 2.15 ± 0.05 | protein stability index (ubr1∆): 2.38 ± 0.034

GSIEEPELNVSLNLTDD [MCD1]
protein stability index (doa10∆): 3.38 ± 0.058 | protein stability index (pdr5∆): 3.44 ± 0.05 | protein stability index (san1∆): 3.15 ± 0.064 | protein stability index (ubr1∆): 3.39 ± 0.04

TNNEQLQQELATTQDQV [NUT2]
protein stability index (doa10∆): 3.06 ± 0.048 | protein stability index (pdr5∆): 3.25 ± 0.062 | protein stability index (san1∆): 3.11 ± 0.039 | protein stability index (ubr1∆): 3.19 ± 0.038

TELKKKLDDLENTKDNL [SMC1]
protein stability index (doa10∆): 3.01 ± 0.11 | protein stability index (pdr5∆): 2.94 ± 0.12 | protein stability index (san1∆): 3.09 ± 0.12 | protein stability index (ubr1∆): 2.72 ± 0.14

SLGFNEVFSRPEWMILT [RPO21]
protein stability index (doa10∆): 1.5 ± 0.11 | protein stability index (pdr5∆): 1.74 ± 0.1 | protein stability index (san1∆): 1.62 ± 0.12 | protein stability index (ubr1∆): 1.21 ± 0.066

YINDVHLLYPPHIIAVA [SSN8]
protein stability index (doa10∆): 1.74 ± 0.057 | protein stability index (pdr5∆): 1.46 ± 0.041 | protein stability index (san1∆): 2.15 ± 0.072 | protein stability index (ubr1∆): 1.67 ± 0.065

AVDHRRQNRNQEIFDAN [RPL13A]
protein stability index (doa10∆): 3.15 ± 0.075 | protein stability index (pdr5∆): 3.21 ± 0.058 | protein stability index (san1∆): 3.23 ± 0.044 | protein stability index (ubr1∆): 3.34 ± 0.046

DMLKYKEDEPVVARRSN [ITC1]
protein stability index (doa10∆): 2.96 ± 0.1 | protein stability index (pdr5∆): 2.42 ± 0.098 | protein stability index (san1∆): 1.84 ± 0.084 | protein stability index (ubr1∆): 1.76 ± 0.063

SMFLRIDYSNSQIRLYA [RGR1]
protein stability index (doa10∆): 2.9 ± 0.076 | protein stability index (pdr5∆): 2.44 ± 0.066 | protein stability index (san1∆): 2.4 ± 0.068 | protein stability index (ubr1∆): 2.44 ± 0.043

VAIAETDSWESFFVSVR [FAS1]
protein stability index (pdr5∆): 3.05 ± 0.3

GTSVYLVDKRIDMLPML [DIS3]
protein stability index (doa10∆): 1.89 ± 0.18 | protein stability index (ubr1∆): 2.12 ± 0.25

NLKVELKEQSEQLKEQM [SMC4]
protein stability index (doa10∆): 3.27 ± 0.055 | protein stability index (pdr5∆): 3.2 ± 0.067 | protein stability index (san1∆): 3.29 ± 0.035 | protein stability index (ubr1∆): 3.2 ± 0.057

PKYAKQKDKSDTYKRFK [ISW2]
protein stability index (doa10∆): 3.12 ± 0.084 | protein stability index (pdr5∆): 3.1 ± 0.1 | protein stability index (san1∆): 3.13 ± 0.11 | protein stability index (ubr1∆): 3.23 ± 0.079

EIKNDFIMVKGCIPGNR [RPL3]
protein stability index (doa10∆): 1.1 ± 0.14 | protein stability index (pdr5∆): 1.66 ± 0.08 | protein stability index (san1∆): 1.48 ± 0.16 | protein stability index (ubr1∆): 1.45 ± 0.11

ALSGNEGDASPFTDITV [RPB2]
protein stability index (doa10∆): 2.99 ± 0.14 | protein stability index (pdr5∆): 3.12 ± 0.075 | protein stability index (san1∆): 3.12 ± 0.099 | protein stability index (ubr1∆): 3.1 ± 0.15

VQVSKAGGLPMDALTLM [RRP45]
protein stability index (doa10∆): 1.28 ± 0.12 | protein stability index (pdr5∆): 1.23 ± 0.18 | protein stability index (san1∆): 1.1 ± 0.2 | protein stability index (ubr1∆): 1.08 ± 0.14

IKKKRKELFEKTFDYVS [SMC1]
protein stability index (doa10∆): 3.16 ± 0.12 | protein stability index (pdr5∆): 3.07 ± 0.099 | protein stability index (san1∆): 3.09 ± 0.12 | protein stability index (ubr1∆): 3.13 ± 0.084

AETIILSSAGKNSSVSS [SRB5]
protein stability index (doa10∆): 1.65 ± 0.063 | protein stability index (pdr5∆): 2.17 ± 0.051 | protein stability index (san1∆): 2.06 ± 0.083 | protein stability index (ubr1∆): 1.89 ± 0.075

IVALTNAKDKERLQLLE [SMC3]
protein stability index (doa10∆): 3.22 ± 0.19 | protein stability index (pdr5∆): 3.29 ± 0.13 | protein stability index (san1∆): 3.01 ± 0.07 | protein stability index (ubr1∆): 3.21 ± 0.11

RGFFDILSLATEGCIGL [MCD1]
protein stability index (doa10∆): 2.87 ± 0.1 | protein stability index (pdr5∆): 3.03 ± 0.057 | protein stability index (san1∆): 2.52 ± 0.092 | protein stability index (ubr1∆): 2.7 ± 0.063

KIRELEAELSSTKVENS [YIL149C/MLP2]
protein stability index (doa10∆): 2.79 ± 0.13 | protein stability index (pdr5∆): 3.12 ± 0.099 | protein stability index (san1∆): 3.23 ± 0.089 | protein stability index (ubr1∆): 3.12 ± 0.064

LSINEKDFVTMAIEIIN [YCG1]
protein stability index (doa10∆): 2.44 ± 0.082 | protein stability index (pdr5∆): 2.38 ± 0.077 | protein stability index (san1∆): 2.14 ± 0.093 | protein stability index (ubr1∆): 2.15 ± 0.053

VLSSVREPDFWVIRKQR [MED6]
protein stability index (doa10∆): 3.52 ± 0.12 | protein stability index (pdr5∆): 3.44 ± 0.1 | protein stability index (san1∆): 3.54 ± 0.12 | protein stability index (ubr1∆): 3.11 ± 0.12

SRGAVSGQKAGLIAARR [RPL2A]
protein stability index (doa10∆): 3.4 ± 0.093 | protein stability index (pdr5∆): 3.32 ± 0.083 | protein stability index (san1∆): 3.27 ± 0.065 | protein stability index (ubr1∆): 3.25 ± 0.097

TAPANTTDANGSKENYQ [MED2]
protein stability index (doa10∆): 2.08 ± 0.066 | protein stability index (pdr5∆): 2.06 ± 0.058 | protein stability index (san1∆): 3.02 ± 0.047 | protein stability index (ubr1∆): 2.86 ± 0.066

QAYEEIISSNENALIEL [YIL149C/MLP2]
protein stability index (doa10∆): 3.18 ± 0.064 | protein stability index (pdr5∆): 3.07 ± 0.061 | protein stability index (san1∆): 2.92 ± 0.071 | protein stability index (ubr1∆): 3.23 ± 0.042

LVSLFEDTNLAAIHAKR [HHT1]
protein stability index (doa10∆): 2.9 ± 0.17 | protein stability index (pdr5∆): 2.67 ± 0.17 | protein stability index (san1∆): 2.56 ± 0.12 | protein stability index (ubr1∆): 2.81 ± 0.063

YACISSRPGQSGRCDGY [RPS8A]
protein stability index (doa10∆): 3.02 ± 0.1 | protein stability index (pdr5∆): 3.21 ± 0.12 | protein stability index (san1∆): 3.35 ± 0.097 | protein stability index (ubr1∆): 3.28 ± 0.046

LGVVFGRGGSGWKPYYK [YML031W/NDC1]
protein stability index (san1∆): 3.4 ± 0.12

KNIPKTRYNRDYMLSMA [SNU114]
protein stability index (doa10∆): 1.94 ± 0.054 | protein stability index (pdr5∆): 2.4 ± 0.054 | protein stability index (san1∆): 2.9 ± 0.056 | protein stability index (ubr1∆): 1.87 ± 0.039

AGKSLVSKSEPKFFLGE [QCR2]
protein stability index (doa10∆): 3.41 ± 0.09 | protein stability index (pdr5∆): 3.31 ± 0.067 | protein stability index (san1∆): 3.08 ± 0.054 | protein stability index (ubr1∆): 3.32 ± 0.047

NNDLESVSMLLQYYILE [RRI2]
protein stability index (doa10∆): 2.94 ± 0.047 | protein stability index (pdr5∆): 3.16 ± 0.049 | protein stability index (san1∆): 3.16 ± 0.034 | protein stability index (ubr1∆): 3.122 ± 0.031

AEVNGGDDEATEIISTL [BRR2]
protein stability index (doa10∆): 3.33 ± 0.094 | protein stability index (pdr5∆): 3.1 ± 0.13 | protein stability index (san1∆): 3.43 ± 0.095 | protein stability index (ubr1∆): 3.11 ± 0.21

YINVSRGTDIDRINYTE [SRB5]
protein stability index (ubr1∆): 3.02 ± 0.22

HVINVGKTWEKLVLAAR [RPS0A]
protein stability index (doa10∆): 3.41 ± 0.15 | protein stability index (pdr5∆): 3.49 ± 0.21 | protein stability index (san1∆): 3.39 ± 0.13 | protein stability index (ubr1∆): 3.12 ± 0.098

MGPPSGKTYMGWWGHMG [QCR8]
protein stability index (san1∆): 3.13 ± 0.2

VLVLHGDKDTRADIVRN [ISW2]
protein stability index (doa10∆): 3.02 ± 0.063 | protein stability index (pdr5∆): 3.17 ± 0.063 | protein stability index (san1∆): 2.9 ± 0.078 | protein stability index (ubr1∆): 3.06 ± 0.054

GVARNFHFAIEQISNNS [SIN4]
protein stability index (doa10∆): 2.8 ± 0.1 | protein stability index (pdr5∆): 2.13 ± 0.075 | protein stability index (san1∆): 2.08 ± 0.064 | protein stability index (ubr1∆): 2.97 ± 0.062

LGSKKELGISLEHPYGK [SNU114]
protein stability index (doa10∆): 3.08 ± 0.11 | protein stability index (pdr5∆): 2.99 ± 0.13 | protein stability index (san1∆): 3.1 ± 0.15 | protein stability index (ubr1∆): 3.28 ± 0.088

GQAIVVHPDYLYGAITE [FAS2]
protein stability index (doa10∆): 2.09 ± 0.034 | protein stability index (pdr5∆): 1.88 ± 0.047 | protein stability index (san1∆): 1.9 ± 0.048 | protein stability index (ubr1∆): 1.79 ± 0.04

ITVHAPLLPIVEELMKK [SNU114]
protein stability index (doa10∆): 2.38 ± 0.068 | protein stability index (pdr5∆): 2.55 ± 0.054 | protein stability index (san1∆): 2.52 ± 0.074 | protein stability index (ubr1∆): 2.7 ± 0.055

FKGVIVKIVDKDGIRQV [PRE1]
protein stability index (doa10∆): 2.26 ± 0.18 | protein stability index (pdr5∆): 3.11 ± 0.19 | protein stability index (san1∆): 3.16 ± 0.23 | protein stability index (ubr1∆): 3.13 ± 0.092

GEICKNYELEKIADNIS [YDL116W/NUP84]
protein stability index (doa10∆): 3.13 ± 0.098 | protein stability index (pdr5∆): 3.12 ± 0.084 | protein stability index (san1∆): 2.96 ± 0.061 | protein stability index (ubr1∆): 3.09 ± 0.061

EILVEESGLRPVSLLNS [PCI8]
protein stability index (doa10∆): 2.63 ± 0.1 | protein stability index (pdr5∆): 3.21 ± 0.1 | protein stability index (san1∆): 3.16 ± 0.063 | protein stability index (ubr1∆): 2.54 ± 0.087

RSIMKNRSVVYFKLDLT [RRI2]
protein stability index (pdr5∆): 1.58 ± 0.22

MTVTKVSLPEGSFKRVK [BRR2]
protein stability index (doa10∆): 2.92 ± 0.13 | protein stability index (pdr5∆): 2.72 ± 0.11 | protein stability index (san1∆): 3.19 ± 0.076 | protein stability index (ubr1∆): 3.17 ± 0.076

VAFLDNDLGKFIPNKQL [RPN7]
protein stability index (doa10∆): 3.34 ± 0.17 | protein stability index (pdr5∆): 3.02 ± 0.17 | protein stability index (san1∆): 2.83 ± 0.26 | protein stability index (ubr1∆): 2.88 ± 0.095

QKKVLIDGPKAGVPRQA [RPL14A]
protein stability index (doa10∆): 3.45 ± 0.087 | protein stability index (pdr5∆): 3.35 ± 0.084 | protein stability index (san1∆): 3.05 ± 0.059 | protein stability index (ubr1∆): 3.35 ± 0.073

SGNIQLDEIIEIARQMR [RPL12A]
protein stability index (doa10∆): 3.07 ± 0.12 | protein stability index (pdr5∆): 3 ± 0.12 | protein stability index (san1∆): 3.05 ± 0.08 | protein stability index (ubr1∆): 3.35 ± 0.14
